T1: HLA-A*02:01 (human), P04439
T1 chain: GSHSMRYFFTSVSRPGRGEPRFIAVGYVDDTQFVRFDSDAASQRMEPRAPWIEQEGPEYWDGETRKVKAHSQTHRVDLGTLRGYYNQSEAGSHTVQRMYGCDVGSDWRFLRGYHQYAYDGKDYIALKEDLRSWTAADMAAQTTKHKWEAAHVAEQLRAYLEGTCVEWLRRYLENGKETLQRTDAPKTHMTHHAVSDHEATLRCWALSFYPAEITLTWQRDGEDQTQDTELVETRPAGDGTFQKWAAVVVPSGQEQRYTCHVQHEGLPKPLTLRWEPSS

T2: HLA-A*01:01 (human), P04439
T2 chain: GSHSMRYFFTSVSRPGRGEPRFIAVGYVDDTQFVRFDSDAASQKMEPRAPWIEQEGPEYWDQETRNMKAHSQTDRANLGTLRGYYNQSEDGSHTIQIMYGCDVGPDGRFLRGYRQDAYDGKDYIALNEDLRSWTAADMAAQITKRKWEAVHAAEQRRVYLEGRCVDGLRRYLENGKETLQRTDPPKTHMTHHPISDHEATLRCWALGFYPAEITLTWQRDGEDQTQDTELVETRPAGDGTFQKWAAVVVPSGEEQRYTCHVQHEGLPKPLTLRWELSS


Experiments:
[1] = target: T1, HLA-A*02:01 (human), P04439; experiment: HLA-binding assay; settings: chains peptide; modification not given
[2] = target: T2, HLA-A*01:01 (human), P04439; experiment: HLA-binding assay; settings: chains peptide; modification not given

Binder | IC50 [1] | IC50 [2]
VLLLWITAA [HPV E5 46-54 peptide …] | 11 nM | 
QVDYYGLYY [HPV E2 151-159 peptide …] |  | 18 nM
KSAIVTLTY [HPV E2 329-337 peptide …] |  | 11 nM

From patent US20240352087A1
